Measurements published in US20130315910A1 (Xencor, published 2013).

T1: human FcγRIIb receptor protein (R&D Systems) (human, UniProt P31994 46-217)
T1 construct: Bought protein injected over captured antibody in Biacore; also called CD32b
T1 sequence (looked up): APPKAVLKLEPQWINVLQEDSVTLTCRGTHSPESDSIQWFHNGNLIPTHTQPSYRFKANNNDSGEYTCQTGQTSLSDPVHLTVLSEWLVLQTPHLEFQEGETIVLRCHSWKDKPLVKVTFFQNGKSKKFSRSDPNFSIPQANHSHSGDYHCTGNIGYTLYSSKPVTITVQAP

T2: cynoFcγRIIb (Macaca fascicularis, UniProt A0A140HDP4)
T2 construct: extracellular region, C-terminal His- and GST-tag; also called cynomolgus monkey FcγRIIb
T2 sequence (receptor extracellular region): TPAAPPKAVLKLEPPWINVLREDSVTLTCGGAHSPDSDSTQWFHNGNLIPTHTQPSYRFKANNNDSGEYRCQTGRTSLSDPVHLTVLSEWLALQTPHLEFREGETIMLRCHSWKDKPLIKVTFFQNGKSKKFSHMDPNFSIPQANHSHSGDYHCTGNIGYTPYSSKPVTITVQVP

T3: mFcγRIIb (Mus musculus, UniProt P08101)
T3 construct: extracellular region, C-terminal His- and GST-tag; also called mouse FcγRII
T3 sequence (receptor extracellular region, looked up): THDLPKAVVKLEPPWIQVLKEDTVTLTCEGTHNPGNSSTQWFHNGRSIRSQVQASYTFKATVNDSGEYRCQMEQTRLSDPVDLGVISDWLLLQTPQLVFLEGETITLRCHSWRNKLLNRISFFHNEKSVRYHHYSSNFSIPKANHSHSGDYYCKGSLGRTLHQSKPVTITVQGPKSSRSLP

T4: mFcγRIV
T4 construct: also called mouse FcγRIV; not shown: C-terminal His and GST tags (named only on our card)
T4 chain: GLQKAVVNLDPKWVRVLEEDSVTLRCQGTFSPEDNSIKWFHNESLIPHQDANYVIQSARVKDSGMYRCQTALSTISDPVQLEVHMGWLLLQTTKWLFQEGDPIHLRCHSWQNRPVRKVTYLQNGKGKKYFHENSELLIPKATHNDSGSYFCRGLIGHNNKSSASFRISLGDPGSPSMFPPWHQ

T5: human FcγRIIa (131H), His- and GST-tagged (human, UniProt P12318 34-217)
T5 construct: also called H131 FcγRIIa; HIIa; not shown: 6xHis and GST tags of the pTT5 vector
T5 sequence (looked up): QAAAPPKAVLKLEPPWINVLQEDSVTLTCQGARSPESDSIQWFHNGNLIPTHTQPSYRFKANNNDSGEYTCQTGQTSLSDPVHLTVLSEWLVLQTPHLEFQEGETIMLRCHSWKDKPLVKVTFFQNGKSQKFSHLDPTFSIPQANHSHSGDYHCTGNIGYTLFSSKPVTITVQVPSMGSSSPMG

T6: human FcγRIIa (131R), His- and GST-tagged (human, UniProt P12318 34-217)
T6 construct: Expressed in HEK293T cells, purified by nickel chromatography; also called R131 FcγRIIa; not shown: 6xHis and GST tags of the pTT5 vector
T6 sequence (looked up): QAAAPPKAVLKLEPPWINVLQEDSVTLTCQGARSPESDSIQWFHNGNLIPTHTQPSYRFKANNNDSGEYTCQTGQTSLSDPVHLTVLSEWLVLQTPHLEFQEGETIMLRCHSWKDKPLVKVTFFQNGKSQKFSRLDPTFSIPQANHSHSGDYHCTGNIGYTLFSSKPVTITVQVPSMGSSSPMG

T7: human FcγRIIb on cells (transfected HEK293T cells; primary human B cells) (human, UniProt P31994 43-310)
T7 construct: whole, on cells; also called CD32b
T7 sequence (looked up): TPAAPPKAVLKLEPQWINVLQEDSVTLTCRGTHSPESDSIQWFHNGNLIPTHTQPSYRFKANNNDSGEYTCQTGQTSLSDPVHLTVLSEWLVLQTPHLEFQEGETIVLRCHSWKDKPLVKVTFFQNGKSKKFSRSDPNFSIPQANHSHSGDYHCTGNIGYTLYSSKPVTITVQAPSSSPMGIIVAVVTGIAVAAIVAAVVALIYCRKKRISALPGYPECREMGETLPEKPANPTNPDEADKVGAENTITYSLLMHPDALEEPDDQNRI


Assays:
[1] = biological target: T1, human FcγRIIb receptor protein (R&D …); assay: Biacore SPR, Kd(native IgG1)/Kd(variant)
[2] = biological target: T1, human FcγRIIb receptor protein (R&D …); assay: Biacore SPR, antibody captured on protein A/G chip, FcγR injected
[3] = biological target: T2, cynoFcγRIIb; assay: SPR
[4] = biological target: T8, cynoFcγRIIIa (Macaca fascicularis, UniProt Q8SPW2); assay: SPR
T8 construct: extracellular region, C-terminal His- and GST-tag; also called cynomolgus monkey FcγRIIIa
T8 sequence (Q8SPW2 17-208): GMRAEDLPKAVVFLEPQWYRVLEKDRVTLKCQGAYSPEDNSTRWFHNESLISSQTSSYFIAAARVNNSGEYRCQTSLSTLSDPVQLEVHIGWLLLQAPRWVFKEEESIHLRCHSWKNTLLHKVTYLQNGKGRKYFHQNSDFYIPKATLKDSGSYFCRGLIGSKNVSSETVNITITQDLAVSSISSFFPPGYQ

[5] = biological target: T3, mFcγRIIb; assay: SPR
[6] = biological target: T4, mFcγRIV; assay: SPR
[7] = biological target: T5, human FcγRIIa (131H), His- and …; assay: SPR
[8] = biological target: T9, human FcγRI receptor protein (R&D Systems) (human, UniProt P12314 16-288); assay: SPR
T9 construct: also called soluble FcγRI; solFcγRI
T9 sequence (P12314 16-288 limits assumed): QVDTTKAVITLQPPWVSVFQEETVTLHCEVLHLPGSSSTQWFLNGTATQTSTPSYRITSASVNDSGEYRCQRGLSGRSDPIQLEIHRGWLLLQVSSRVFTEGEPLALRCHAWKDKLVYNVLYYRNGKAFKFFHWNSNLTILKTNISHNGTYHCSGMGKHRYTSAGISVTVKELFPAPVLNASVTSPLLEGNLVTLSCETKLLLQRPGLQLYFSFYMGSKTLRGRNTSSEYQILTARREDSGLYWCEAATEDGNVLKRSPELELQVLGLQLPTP

[9] = biological target: T10, human FcγRIIIa (158V), His- and GST-tagged (human, UniProt P08637 17-208); assay: SPR
T10 construct: also called V158 FcγRIIIa; VIIIa; not shown: 6xHis and GST tags of the pTT5 vector
T10 sequence (P08637 17-208 F176V): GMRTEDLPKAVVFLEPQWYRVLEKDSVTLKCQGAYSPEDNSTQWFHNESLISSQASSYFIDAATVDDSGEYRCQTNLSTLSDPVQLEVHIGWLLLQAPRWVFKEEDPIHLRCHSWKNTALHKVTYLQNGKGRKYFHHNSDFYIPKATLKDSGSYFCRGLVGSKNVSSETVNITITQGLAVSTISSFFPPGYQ

[10] = biological target: T6, human FcγRIIa (131R), His- and …; assay: SPR
[11] = biological target: T7, human FcγRIIb on cells (transfected …); assay: flow cytometry on FcγRIIb-transfected 293T cells [top left panel]
Protocol: In order to validate the Biacore data and evaluate receptor binding of the variants on the cell surface, binding of select antibodies to cells expressing FcγRIIb was measured. […] HEK293T cells in DMEM with 10% FBS were transfected with human FcγRIIb cDNA in pCMV6 expression vector (Origene Technologies, Rockville, Md.), cultured for 3 days, harvested, washed twice in PBS, resuspended in PBS with 0.1% BSA (PBS/BSA), and aliquoted at 2×10^5 cells per well into 96-well microtiter plates. Fc variant antibodies were serially diluted in PBS/BSA then added to the cells and incubated with mixing for 1 h at room temperature. After extensive washing with PBS/BSA, phycoerythrin (PE)-labeled anti-human-Fab-specific goat F(ab′)2 fragment was added for detection. Cells were incubated for 30 min at room temperature, washed, and resuspended in PBS/BSA. Binding was evaluated using a FACSCanto II flow cytometer (BD Biosciences, San Jose, Calif.), and the mean fluorescence intensity (MFI) was plotted as a function of antibody concentration using Graph Pad Prism software (GraphPad Software, San Diego, Calif.) from which half-maximal binding (EC50) values were determined by sigmoidal dose response modeling.

[12] = biological target: T1, human FcγRIIb receptor protein (R&D …); assay: SPR
[13] = biological target: T8, cynoFcγRIIIa; assay: SPR, Kd
Protocol: Variants were screened for receptor affinity using Biacore™ technology, also referred to as Biacore herein, a surface plasmon resonance (SPR) based technology for studying biomolecular interactions in real time. SPR measurements were performed using a Biacore 3000 instrument (Biacore, Piscataway, N.J.). A protein A/G (Pierce Biotechnology) CM5 biosensor chip (Biacore) was generated using a standard primary amine coupling protocol. All measurements were performed using HBS-EP buffer (10 mM HEPES pH 7.4, 0.15 M NaCl, 3 mM EDTA, 0.005% vol/vol surfactant P20, Biacore). Antibodies at 20 nM or 50 nM in HBS-EP buffer were immobilized on the protein A/G surface and FcγRs were injected. After each cycle, the surface was regenerated by injecting glycine buffer (10 mM, pH 1.5). Data were processed by zeroing time and response before the injection of FcγR and by subtracting appropriate nonspecific signals (response of reference channel and injection of running buffer). Kinetic analyses were performed by global fitting of binding data with a 1:1 Langmuir binding model using BIAevaluation software (Biacore).
Variant antibodies were tested for their affinity to mouse or cynologous monkey FcγRs using Biacore SPR as described above. Specifically, antibodies were first immobilized on a protein A/G chip to high density, and then followed by injections of the extracellular domain of the mouse or cynologous monkey FcγR of interest. Both association and dissociation phases were tracked in real time using the Biacore technology.
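For Fold vs WT IgG1 (off-rate) in this document: fold improvement over WT IgG1 so higher means slower dissociation than WT.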

fold affinity relative to native IgG1 [1]	Kd [2]	Fold vs WT IgG1 (off-rate) [3]	Fold vs WT IgG1 (off-rate) [4]	Fold vs WT IgG1 (off-rate) [5]	Fold vs WT IgG1 (off-rate) [6]	Fold vs WT IgG1 [7]	Kd [7]	Fold vs WT IgG1 [8]	Kd [8]	Fold vs WT IgG1 [9]	Kd [9]	Fold vs WT IgG1 [10]	Kd [10]	EC50 (read off the curve) [11]	Fold vs WT IgG1 [12]	Kd [12]	binding result [13]	binding result [9]	Binder
3.6 fold	408 nM	1.05 fold	1.27 fold	3.02 fold	1.53 fold	1.22 fold	530 nM	1.15 fold	0.287 nM	0.952 fold	201 nM	4.29 fold	200 nM						anti-CD19 antibody HuAM4G7 IgG1 S267A (antibody, Positions in EU numbering; copies: 2 + 2) heavy: not shown light: DIVMTQSPATLSLSPGERATLSCRSSKSLQNVNGNTYLYWFQQKPGQSPQLLIYRMSNLNSGVPDRFSGSGSGTEFTLTISSLEPEDFAVYYCMQHLEYPITFGAGTKLEIKRTVAAPSVFIFPPSDEQLKSGTASVVCLLNNFYPREAKVQWKVDNALQSGNSQESVTEQDSKDSTYSLSSTLTLSKADYEKHKVYACEVTHQGLSSPVTKSFNRGEC
		1.03 fold	1.27 fold	1.95 fold	1.27 fold	0.93 fold	695 nM	2.11 fold	0.156 nM	1.51 fold	127 nM	8.99 fold	95.5 nM	~30 ng/mL	4.45 fold	330 nM			S267D (antibody, human IgG1, kappa, HuAM4G7 anti-CD19 IgG1 (m1) with this Fc substitution, EU index; copies: 2 + 2) heavy: not shown light: DIVMTQSPATLSLSPGERATLSCRSSKSLQNVNGNTYLYWFQQKPGQSPQLLIYRMSNLNSGVPDRFSGSGSGTEFTLTISSLEPEDFAVYYCMQHLEYPITFGAGTKLEIKRTVAAPSVFIFPPSDEQLKSGTASVVCLLNNFYPREAKVQWKVDNALQSGNSQESVTEQDSKDSTYSLSSTLTLSKADYEKHKVYACEVTHQGLSSPVTKSFNRGEC
		1.93 fold		7.92 fold		1.34 fold	481 nM	0.224 fold	1.47 nM			122 fold	7.06 nM		43.1 fold	34.1 nM	no binding	no binding	S267E/L328Y (antibody, human IgG1, kappa, HuAM4G7 anti-CD19 IgG1 (m1) with these Fc substitutions, EU index; copies: 2 + 2) heavy: not shown light: DIVMTQSPATLSLSPGERATLSCRSSKSLQNVNGNTYLYWFQQKPGQSPQLLIYRMSNLNSGVPDRFSGSGSGTEFTLTISSLEPEDFAVYYCMQHLEYPITFGAGTKLEIKRTVAAPSVFIFPPSDEQLKSGTASVVCLLNNFYPREAKVQWKVDNALQSGNSQESVTEQDSKDSTYSLSSTLTLSKADYEKHKVYACEVTHQGLSSPVTKSFNRGEC
